A word on the stoichiometry N: it is the number of molecules, sites or subunits per partner or assembly. One may read the Kd as a measure of binding affinity in units of concentration.

The target of test [1] is Streptococcus pyogenes alpha-enolase (SEn) (S. pyogenes strain AP53) (UniProt P69949). The test can be described thus: cryo-EM structure; SEn reconstituted in DOPG vesicles, extruded to small unilamellar vesicles; octamer in the bilayer.
Test [2] has the same target. Put plainly: SPR; SEn immobilised on CM5 chip; tPA analyte 0-2000 nM in HBS-EP+ pH 7.4; 10 uL/min, 600 s association, 300 s dissociation; affinity (steady-state) fit. (In general: Surface plasmon resonance follows binding to a sensor surface in real time, without labels.)
For test [3] the target is unchanged. Put plainly: flow cytometry on DOPG vesicles; SEn-constituted DOPG vesicles (BSA-blocked) incubated with 0.8 uM tPA in PBS for 1 h; mouse anti-tPA and Alexa Fluor 488 anti-mouse IgG. (In flow cytometry, cells or beads pass a laser one at a time.)

On to “Streptococcus pyogenes alpha-enolase (SEn) (from UniProt P69949 1-435) (enzyme)”, for which the stoichiometry N in test [1] stood at 8.

In turn, “recombinant human tissue-type plasminogen activator (tPA) (enzyme)” registered a Kd in test [2] of 161 nM. In addition, the percent DOPG-SEn-tPA complex (FITC-positive vesicles) in test [3] was 70%.

These data come from publication PMC12504095.
